According to PMC6876572:

What was measured:
[1] = target: Cof1-decorated (Cofilin-saturated) actin filament (rabbit | S. cerevisiae) (UniProt P68135); experiment: single-molecule two-colour TIRF imaging; actin filaments (10% Alexa-488, 0.5% biotinylated) anchored along their lengths on streptavidin-coated coverslips, exposed to a mixture of Cy5-Srv2ΔCARP (8.3 or 83 nM hexamers) and 1 µM yeast Cof1 in TIRF buffer (10 mM imidazole pH 7.4, 50 mM KCl, 1 mM MgCl2, 1 mM EGTA, 0.2 mM ATP, 10 mM DTT); dwell and waiting times at the pointed end; kon corrected for unlabeled molecules
[2] = target: Cof1-decorated (Cofilin-saturated) actin filament (rabbit | S. cerevisiae) (UniProt P68135)

Row | average dwell time at the pointed end [1] [s] | fractional occupancy of filament ends at 8.3 nM (calculated from kon and koff) [1] [%] | fractional occupancy of filament ends at 83 nM (calculated from kon and koff) [1] [%] | koff [1] [s⁻¹] | kon [1] [M⁻¹ s⁻¹] | KM of the rate of pointed-end depolymerization against N-Srv2 concentration at 1 µM Cof1 (mf-TIRF, fit to the Michaelis-Menten equation) [2] [µM] | Substance
1 | 2.2 | 16 | 66 | 0.45 | 1.1e+07 | – | Cy5-maleimide-labeled Srv2ΔCARP (S. cerevisiae Srv2/CAP lacking the CARP domain) (from UniProt P17555 1-526) (domain or fragment)
2 | – | – | – | – | – | 0.05 | N-Srv2 (N-terminal half of S. cerevisiae Srv2/CAP) (domain or fragment)
